{
  "source": "patent US20250186594A1",
  "key": {"[1]": {"molecular_target": "Native IL-18 wild-type (SEQ ID NO: 1, native sequence) (human) (UniProt Q14116)", "sequence (Q14116 37-193)": "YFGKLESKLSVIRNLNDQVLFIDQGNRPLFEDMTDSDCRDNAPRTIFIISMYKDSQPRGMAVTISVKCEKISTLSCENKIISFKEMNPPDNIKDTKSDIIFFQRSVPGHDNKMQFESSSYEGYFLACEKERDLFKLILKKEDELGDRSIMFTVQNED"}, "[2]": {"molecular_target": "IL-18 variant SEQ ID NO: 204 (V11I, C38A, K53A, C76A, C127A) (human) (UniProt Q14116)", "sequence (Q14116 37-193 V47I/C74A/K89A/C112A/C163A)": "as the sequence (Q14116 37-193) above, with V11I, C38A, K53A, C76A, C127A counted along it", "test": "cell-based or functional assay"}, "[3]": {"molecular_target": "IL-18 variant SEQ ID NO: 210 (V11I, E31A, C38A, K53A, C76A, C127A) (human) (UniProt Q14116)", "sequence (Q14116 37-193 V47I/E67A/C74A/K89A/C112A/C163A)": "as the sequence (Q14116 37-193) above, with V11I, E31A, C38A, K53A, C76A, C127A counted along it", "test": "cell-based or functional assay"}, "[4]": {"molecular_target": "IL-18 variant SEQ ID NO: 211 (V11I, T34A, C38A, K53A, C76A, C127A) (human) (UniProt Q14116)", "sequence (Q14116 37-193 V47I/T70A/C74A/K89A/C112A/C163A)": "as the sequence (Q14116 37-193) above, with V11I, T34A, C38A, K53A, C76A, C127A counted along it", "test": "cell-based or functional assay"}, "[5]": {"molecular_target": "IL-18 variant SEQ ID NO: 213 (V11I, S36A, C38A, K53A, C76A, C127A) (human) (UniProt Q14116)", "sequence (Q14116 37-193 V47I/S72A/C74A/K89A/C112A/C163A)": "as the sequence (Q14116 37-193) above, with V11I, S36A, C38A, K53A, C76A, C127A counted along it", "test": "cell-based or functional assay"}, "[6]": {"molecular_target": "IL-18 variant SEQ ID NO: 218 (V11I, C38A, K53A, C76A, C127A, D132A) (human) (UniProt Q14116)", "sequence (Q14116 37-193 V47I/C74A/K89A/C112A/C163A/D168A)": "as the sequence (Q14116 37-193) above, with V11I, C38A, K53A, C76A, C127A, D132A counted along it", "test": "cell-based or functional assay"}, "[7]": {"molecular_target": "IL-18 variant SEQ ID NO: 221 (V11I, C38A, K53A, C76A, D110A, C127A) (human) (UniProt Q14116)", "sequence (Q14116 37-193 V47I/C74A/K89A/C112A/D146A/C163A)": "as the sequence (Q14116 37-193) above, with V11I, C38A, K53A, C76A, D110A, C127A counted along it", "test": "cell-based or functional assay"}, "[8]": {"molecular_target": "IL-18 variant SEQ ID NO: 222 (K8R, V11I, C38A, C76A, Q103E, C127A) (human) (UniProt Q14116)", "sequence (Q14116 other isoform, or with tags, fused parts or gaps V11I C38A C76A Q103E C127A V11I C38A C76A Q103E C127A)": "as the sequence (Q14116 37-193) above, with K8R, V11I, C38A, C76A, Q103E, C127A counted along it", "test": "cell-based or functional assay"}, "[9]": {"molecular_target": "IL-18 variant SEQ ID NO: 223 (K8E, V11I, C38A, C76A, Q103R, C127A) (human) (UniProt Q14116)", "sequence (Q14116 other isoform, or with tags, fused parts or gaps V11I C38A C76A Q103R C127A V11I C38A C76A Q103R C127A)": "as the sequence (Q14116 37-193) above, with K8E, V11I, C38A, C76A, Q103R, C127A counted along it", "test": "cell-based or functional assay"}, "[10]": {"molecular_target": "IL-18 variant SEQ ID NO: 224 (V11I, C38A, C76A, Q103K, C127A) (human) (UniProt Q14116)", "sequence (Q14116 37-193 V47I/C74A/C112A/Q139K/C163A)": "as the sequence (Q14116 37-193) above, with V11I, C38A, C76A, Q103K, C127A counted along it", "test": "cell-based or functional assay"}, "[11]": {"molecular_target": "IL-18 variant SEQ ID NO: 228 (V11I, C38A, C76A, S105I, C127A) (human) (UniProt Q14116)", "sequence (Q14116 37-193 V47I/C74A/C112A/S141I/C163A)": "as the sequence (Q14116 37-193) above, with V11I, C38A, C76A, S105I, C127A counted along it", "test": "cell-based or functional assay"}, "[12]": {"molecular_target": "IL-18 variant SEQ ID NO: 229 (V11I, C38A, C76A, S105K, C127A) (human) (UniProt Q14116)", "sequence (Q14116 37-193 V47I/C74A/C112A/S141K/C163A)": "as the sequence (Q14116 37-193) above, with V11I, C38A, C76A, S105K, C127A counted along it", "test": "cell-based or functional assay"}, "[13]": {"molecular_target": "IL-18 variant SEQ ID NO: 30 with 30 kDa PEG (E6K, V11I, C38A, K53A, T63A, C76A, C127A, C68-30kPEG) (human) (UniProt Q14116)", "sequence (Q14116 other isoform, or with tags, fused parts or gaps with the stated changes)": "as the sequence (Q14116 37-193) above, with E6K, V11I, C38A, K53A, T63A, C76A, C127A counted along it", "test": "cell-based or functional assay"}, "[14]": {"molecular_target": "IL-18 variant SEQ ID NO: 30 with 5 kDa PEG (E6K, V11I, C38A, K53A, T63A, C76A, C127A, C68-5kPEG) (human) (UniProt Q14116)", "sequence (Q14116 other isoform, or with tags, fused parts or gaps with the stated changes)": "as the sequence (Q14116 37-193) above, with E6K, V11I, C38A, K53A, T63A, C76A, C127A counted along it", "test": "cell-based or functional assay"}, "[15]": {"molecular_target": "IL-18 variant SEQ ID NO: 4 (E6K, C38A, K53A, C68A, M86C) (human) (UniProt Q14116)", "sequence (Q14116 other isoform, or with tags, fused parts or gaps C38A K53A C68A M86C C38A K53A C68A M86C)": "as the sequence (Q14116 37-193) above, with E6K, C38A, K53A, C68A, M86C counted along it", "test": "cell-based or functional assay"}, "[16]": {"molecular_target": "IL-18 variant SEQ ID NO: 4 with 30 kDa PEG (E6K, C38A, K53A, C68A, M86C-30kPEG) (human) (UniProt Q14116)", "sequence (Q14116 other isoform, or with tags, fused parts or gaps C38A K53A C68A M86C C38A K53A C68A M86C)": "as the sequence (Q14116 37-193) above, with E6K, C38A, K53A, C68A, M86C counted along it", "test": "cell-based or functional assay"}, "[17]": {"molecular_target": "IL-18 variant SEQ ID NO: 5 with 30 kDa PEG (E6K, V11I, C38A, K53A, T63A, C68A, C76A, C127A, M86C-30kPEG) (human) (UniProt Q14116)", "sequence (Q14116 other isoform, or with tags, fused parts or gaps with the stated changes)": "as the sequence (Q14116 37-193) above, with E6K, V11I, C38A, K53A, T63A, C68A, C76A, M86C, C127A counted along it", "test": "cell-based or functional assay"}, "[18]": {"molecular_target": "IL-18 variant SEQ ID NO: 57 (E6K, C38S, K53A) (human) (UniProt Q14116)", "sequence (Q14116 other isoform, or with tags, fused parts or gaps C38S K53A C38S K53A)": "as the sequence (Q14116 37-193) above, with E6K, C38S, K53A counted along it", "test": "cell-based or functional assay"}, "[19]": {"molecular_target": "IL-18 variant SEQ ID NO: 57 with 30 kDa PEG (E6K, C38S, K53A, C68-30kDPEG) (human) (UniProt Q14116)", "sequence (Q14116 other isoform, or with tags, fused parts or gaps C38S K53A C38S K53A)": "as the sequence (Q14116 37-193) above, with E6K, C38S, K53A counted along it", "test": "cell-based or functional assay"}, "[20]": {"molecular_target": "IL-18 variant SEQ ID NO: 59 (E6K, C38A, K53A) (human) (UniProt Q14116)", "sequence (Q14116 other isoform, or with tags, fused parts or gaps C38A K53A C38A K53A)": "as the sequence (Q14116 37-193) above, with E6K, C38A, K53A counted along it", "test": "cell-based or functional assay"}, "[21]": {"molecular_target": "IL-18 variant SEQ ID NO: 59 with 10 kDa PEG (E6K, C38A, K53A, C68-10kPEG) (human) (UniProt Q14116)", "sequence (Q14116 other isoform, or with tags, fused parts or gaps C38A K53A C38A K53A)": "as the sequence (Q14116 37-193) above, with E6K, C38A, K53A counted along it", "test": "cell-based or functional assay"}, "[22]": {"molecular_target": "IL-18 variant SEQ ID NO: 59 with 30 kDa PEG (E6K, C38A, K53A, C68-30kDPEG) (human) (UniProt Q14116)", "sequence (Q14116 other isoform, or with tags, fused parts or gaps C38A K53A C38A K53A)": "as the sequence (Q14116 37-193) above, with E6K, C38A, K53A counted along it", "test": "cell-based or functional assay"}, "[23]": {"molecular_target": "IL-18 variant SEQ ID NO: 6 (E6K, V11I, C38A, K53A, T63A, C68A, C76A, D98C, C127A) (human) (UniProt Q14116)", "test": "cell-based or functional assay"}, "[24]": {"molecular_target": "IL-18 variant SEQ ID NO: 60 (E6K, C38Q, K53A) (human) (UniProt Q14116)", "sequence (Q14116 other isoform, or with tags, fused parts or gaps C38Q K53A C38Q K53A)": "as the sequence (Q14116 37-193) above, with E6K, C38Q, K53A counted along it", "test": "cell-based or functional assay"}, "[25]": {"molecular_target": "IL-18 variant SEQ ID NO: 61 with 30 kDa PEG (E6K, C38A, K53A, C76A, C68-30kPEG) (human) (UniProt Q14116)", "sequence (Q14116 other isoform, or with tags, fused parts or gaps C38A K53A C76A C38A K53A C76A)": "as the sequence (Q14116 37-193) above, with E6K, C38A, K53A, C76A counted along it", "test": "cell-based or functional assay"}, "[26]": {"molecular_target": "IL-18 variant SEQ ID NO: 62 with 30 kDa PEG (E6K, C38A, K53A, C127A, C68-30kPEG) (human) (UniProt Q14116)", "sequence (Q14116 other isoform, or with tags, fused parts or gaps C38A K53A C127A C38A K53A C127A)": "as the sequence (Q14116 37-193) above, with E6K, C38A, K53A, C127A counted along it", "test": "cell-based or functional assay"}, "[27]": {"molecular_target": "IL-18 variant SEQ ID NO: 63 (E6K, C38A, K53A, C76A, C127A) (human) (UniProt Q14116)", "sequence (Q14116 other isoform, or with tags, fused parts or gaps C38A K53A C76A C127A C38A K53A C76A C127A)": "as the sequence (Q14116 37-193) above, with E6K, C38A, K53A, C76A, C127A counted along it", "test": "cell-based or functional assay"}, "[28]": {"molecular_target": "IL-18 variant SEQ ID NO: 8 (E6K, V11I, C38A, K53A, T63A, C68A, C76A, T95C, C127A) (human) (UniProt Q14116)", "sequence (Q14116 other isoform, or with tags, fused parts or gaps with the stated changes)": "as the sequence (Q14116 37-193) above, with E6K, V11I, C38A, K53A, T63A, C68A, C76A, T95C, C127A counted along it", "test": "cell-based or functional assay"}, "[29]": {"molecular_target": "IL-18 variant SEQ ID NO: 9 (E6K, C38A, K53A, C68A, D98C) (human) (UniProt Q14116)", "sequence (Q14116 other isoform, or with tags, fused parts or gaps C38A K53A C68A D98C C38A K53A C68A D98C)": "as the sequence (Q14116 37-193) above, with E6K, C38A, K53A, C68A, D98C counted along it", "test": "cell-based or functional assay"}, "[30]": {"molecular_target": "Native IL-18 wild-type (SEQ ID NO: 1, native sequence) (human) (UniProt Q14116)", "test": "cell-based or functional assay"}},
  "data": [
    {"substance": "Fc fused human IL-18BP isoform a (IL-18BPa) (from UniProt O95998 31-194) (Fc fusion)", "values": [
      {"measurement": "IC50 (read off the curve); IFNγ production in the NK-92 assay (IFNg, ng/mL)", "setting": "[1]", "result": 1, "unit": "nM"},
      {"measurement": "IC50 of IL-18BPa-Fc on IFNγ secretion, NK-92", "setting": "[2]", "result": 1.62, "unit": "nM"},
      {"measurement": "IC50 of IL-18BPa-Fc on IFNγ secretion, NK-92", "setting": "[3]", "result": 1.17, "unit": "nM"},
      {"measurement": "IC50 of IL-18BPa-Fc on IFNγ secretion, NK-92", "setting": "[4]", "result": 21.3, "unit": "nM"},
      {"measurement": "IC50 of IL-18BPa-Fc on IFNγ secretion, NK-92", "setting": "[5]", "result": 7.85, "unit": "nM"},
      {"measurement": "IC50 of IL-18BPa-Fc on IFNγ secretion, NK-92", "setting": "[6]", "result": 6.08, "unit": "nM"},
      {"measurement": "IC50 of IL-18BPa-Fc on IFNγ secretion, NK-92", "setting": "[7]", "result": 3.18, "unit": "nM"},
      {"measurement": "IC50 of IL-18BPa-Fc on IFNγ secretion, NK-92", "setting": "[8]", "result": 1.07, "unit": "nM"},
      {"measurement": "IC50 of IL-18BPa-Fc on IFNγ secretion, NK-92", "setting": "[9]", "result": 7.29, "unit": "nM"},
      {"measurement": "IC50 of IL-18BPa-Fc on IFNγ secretion, NK-92", "setting": "[10]", "result": 0.823, "unit": "nM"},
      {"measurement": "IC50 of IL-18BPa-Fc on IFNγ secretion, NK-92", "setting": "[11]", "result": 0.809, "unit": "nM"},
      {"measurement": "IC50 of IL-18BPa-Fc on IFNγ secretion, NK-92", "setting": "[12]", "result": 0.176, "unit": "nM"},
      {"measurement": "IC50 of IL-18BPa-Fc on IFNγ secretion, NK-92", "setting": "[13]", "result": 34.3, "unit": "nM"},
      {"measurement": "IC50 of IL-18BPa-Fc on IFNγ secretion, NK-92", "setting": "[14]", "result": 105, "unit": "nM"},
      {"measurement": "IC50 of IL-18BPa-Fc on IFNγ secretion, NK-92", "setting": "[15]", "result": 1000, "unit": "nM"},
      {"measurement": "IC50 of IL-18BPa-Fc on IFNγ secretion, NK-92", "setting": "[16]", "result": 126, "unit": "nM"},
      {"measurement": "IC50 of IL-18BPa-Fc on IFNγ secretion, NK-92", "setting": "[17]", "result": 32.5, "unit": "nM"},
      {"measurement": "IC50 of IL-18BPa-Fc on IFNγ secretion, NK-92", "setting": "[18]", "result": 146, "unit": "nM"},
      {"measurement": "IC50 of IL-18BPa-Fc on IFNγ secretion, NK-92", "setting": "[19]", "result": 11.4, "unit": "nM"},
      {"measurement": "IC50 of IL-18BPa-Fc on IFNγ secretion, NK-92", "setting": "[20]", "result": 654, "unit": "nM"},
      {"measurement": "IC50 of IL-18BPa-Fc on IFNγ secretion, NK-92", "setting": "[21]", "result": 236, "unit": "nM"},
      {"measurement": "IC50 of IL-18BPa-Fc on IFNγ secretion, NK-92", "setting": "[22]", "result": 41.8, "unit": "nM"},
      {"measurement": "IC50 of IL-18BPa-Fc on IFNγ secretion, NK-92", "setting": "[23]", "result": 25.3, "unit": "nM"},
      {"measurement": "IC50 of IL-18BPa-Fc on IFNγ secretion, NK-92", "setting": "[24]", "result": 829, "unit": "nM"},
      {"measurement": "IC50 of IL-18BPa-Fc on IFNγ secretion, NK-92", "setting": "[25]", "result": 4.29, "unit": "nM"},
      {"measurement": "IC50 of IL-18BPa-Fc on IFNγ secretion, NK-92", "setting": "[26]", "result": 4.83, "unit": "nM"},
      {"measurement": "IC50 of IL-18BPa-Fc on IFNγ secretion, NK-92", "setting": "[27]", "result": 286, "unit": "nM"},
      {"measurement": "IC50 of IL-18BPa-Fc on IFNγ secretion, NK-92", "setting": "[28]", "result": 522, "unit": "nM"},
      {"measurement": "IC50 of IL-18BPa-Fc on IFNγ secretion, NK-92", "setting": "[29]", "result": 1000, "unit": "nM"},
      {"measurement": "IC50 of IL-18BPa-Fc on IFNγ secretion, NK-92", "setting": "[30]", "result": 0.781, "unit": "nM"}
    ]}
  ]
}
